Test results taken from paper PMC10397247.
Blank lines part the entries; values can stand above or below the binder they belong to.

Tests used:
Experiment in all cases: two-hybrid library CCNG1;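 further: natural log of median RNA to DNA barcode read ratio; higher means stronger binding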
[1] = biological target: T1, 4H3926-bA
T1 chain: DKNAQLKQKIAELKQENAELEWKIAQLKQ

[2] = biological target: T2, 4H2627-bA
T2 chain: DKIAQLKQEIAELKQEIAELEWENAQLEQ

[3] = biological target: T3, 4H918-bA
T3 chain: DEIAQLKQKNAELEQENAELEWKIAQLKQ

[4] = biological target: T4, 4H797-bA
T4 chain: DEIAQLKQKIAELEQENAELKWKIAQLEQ

[5] = biological target: T5, 4H3010-bA
T5 chain: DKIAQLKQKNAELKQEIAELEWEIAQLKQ

[6] = biological target: T6, 4H2673-bA
T6 chain: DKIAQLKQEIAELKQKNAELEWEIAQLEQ

[7] = biological target: T7, 4H2702-bA
T7 chain: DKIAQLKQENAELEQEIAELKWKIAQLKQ

[8] = biological target: T8, 4H1831-bA
T8 chain: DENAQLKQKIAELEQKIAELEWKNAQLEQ

[9] = biological target: T9, 4H170-bA
T9 chain: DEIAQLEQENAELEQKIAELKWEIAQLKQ

[10] = biological target: T10, O3-bP
T10 chain: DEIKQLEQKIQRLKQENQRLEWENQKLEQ

[11] = biological target: T11, 4H575-bA
T11 chain: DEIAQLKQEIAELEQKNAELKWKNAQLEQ

[12] = biological target: T12, 4H346-bA
T12 chain: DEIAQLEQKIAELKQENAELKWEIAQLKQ

[13] = biological target: T13, 4H457-bA
T13 chain: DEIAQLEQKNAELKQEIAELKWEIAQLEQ

[14] = biological target: T14, 4H968-bA
T14 chain: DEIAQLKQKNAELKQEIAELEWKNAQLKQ

[15] = biological target: T15, 4H780-bA
T15 chain: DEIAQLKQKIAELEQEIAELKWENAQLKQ

[16] = biological target: T16, 4H2586-bA
T16 chain: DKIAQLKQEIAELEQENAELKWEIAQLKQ

[17] = biological target: T17, 4H855-bA
T17 chain: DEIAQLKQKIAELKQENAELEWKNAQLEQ

[18] = biological target: T18, 4H3112-bA
T18 chain: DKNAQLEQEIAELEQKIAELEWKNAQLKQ

[19] = biological target: T19, 4H4073-bA
T19 chain: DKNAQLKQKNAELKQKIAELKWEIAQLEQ

[20] = biological target: T20, 4H118-bA
T20 chain: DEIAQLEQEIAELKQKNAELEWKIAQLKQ

[21] = biological target: T21, 4H953-bA
T21 chain: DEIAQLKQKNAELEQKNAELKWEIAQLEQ

[22] = biological target: T22, 4H683-bA
T22 chain: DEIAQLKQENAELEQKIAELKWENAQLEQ

[23] = biological target: T23, 4H754-bA
T23 chain: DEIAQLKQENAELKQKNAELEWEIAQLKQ

[24] = biological target: T24, 4H3427-bA
T24 chain: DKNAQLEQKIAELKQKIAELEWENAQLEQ

[25] = biological target: T25, 4H3632-bH
T25 chain: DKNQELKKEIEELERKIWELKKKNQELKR

[26] = biological target: T26, 4H496-bH
T26 chain: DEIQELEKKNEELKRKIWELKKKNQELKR

[27] = biological target: T27, 4H342-bH
T27 chain: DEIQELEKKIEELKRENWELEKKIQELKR

[28] = biological target: T28, 4H2691-bH
T28 chain: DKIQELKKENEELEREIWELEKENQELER

[29] = biological target: T29, 4H3070-bH
T29 chain: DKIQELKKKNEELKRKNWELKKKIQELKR

[30] = biological target: T30, 4H3961-bH
T30 chain: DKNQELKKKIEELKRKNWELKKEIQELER

[31] = biological target: T31, 4H2745-bH
T31 chain: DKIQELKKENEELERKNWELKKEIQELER

[32] = biological target: T32, 4H2619-bH
T32 chain: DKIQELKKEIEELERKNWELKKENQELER

[33] = biological target: T33, 4H2717-bA
T33 chain: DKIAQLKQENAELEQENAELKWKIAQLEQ

[34] = biological target: T34, 4H3907-bH
T34 chain: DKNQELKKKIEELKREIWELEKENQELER

[35] = biological target: T35, 4H470-bH
T35 chain: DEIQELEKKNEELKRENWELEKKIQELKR

[36] = biological target: T36, 4H363-bH
T36 chain: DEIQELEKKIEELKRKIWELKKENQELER

[37] = biological target: T37, 4H344-bH
T37 chain: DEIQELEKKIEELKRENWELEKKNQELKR

- interaction score [1]: 1.96
- interaction score [2]: 0.852
- interaction score [3]: -0.49
- interaction score [4]: -1.22
- interaction score [5]: 2.66
- interaction score [6]: 1.32
- interaction score [7]: 0.439
- interaction score [8]: -0.644
- interaction score [9]: -0.0431
- interaction score [10]: -1.86
- interaction score [11]: 0.369
- interaction score [12]: -0.612
- interaction score [13]: -0.384
- interaction score [14]: 0.0453
- interaction score [15]: 0.087
- interaction score [16]: 0.381
- interaction score [17]: 0.403
- interaction score [18]: 0.131
- interaction score [19]: -0.156
- interaction score [20]: 1.64
- interaction score [21]: -0.791
- interaction score [22]: -0.721
- interaction score [23]: -1.04
- interaction score [24]: 0.236
B1: 4H118-bA (peptide)
chain: DEIAQLEQEIAELKQKNAELEWKIAQLKQ

- interaction score [25]: -1.39
- interaction score [26]: 1.3
- interaction score [27]: -1.06
- interaction score [28]: -0.0571
- interaction score [29]: 0.576
B2: 4H2691-bH (peptide)
chain: DKIQELKKENEELEREIWELEKENQELER

- interaction score [30]: -0.9
- interaction score [31]: 0.382
- interaction score [32]: 0.248
- interaction score [25]: -0.755
- interaction score [33]: -0.495
- interaction score [26]: -0.548
- interaction score [27]: 1.45
- interaction score [34]: 0.518
- interaction score [28]: 0.304
- interaction score [35]: 0.724
- interaction score [29]: -0.416
- interaction score [36]: 0.722
- interaction score [37]: 1.68
B3: 4H2619-bH (peptide)
chain: DKIQELKKEIEELERKNWELKKENQELER
